{"source": "patent US9493781B2", "about": "“Synthetic brassica-derived chloroplast transit peptides” (DOW AGROSCIENCES LLC, priority 2012, dated 2016)", "molecules": {"B1": {"name": "TraP8: chimeric chloroplast transit peptide SEQ ID NO:3; N-terminus from Brassica napus EPSPS CTP, C-terminus from Brassica rapa (protein)", "chain": "MAQSSRICHGVQNPCVIISNLSKSNQNKSPFSVSLKTHQQQRRAYQISSWGLKKSNNGSVIRPVK", "modifications": "TraP8 chimeric chloroplast transit peptide", "notes": "N-terminus from Brassica napus EPSPS CTP, C-terminus from Brassica rapa"}}, "tested_on": "chloroplasts of tobacco cells", "experiment": "Tobacco transient assay: confocal microscopy of TraP-YFP localization", "format": "cell-based, Nicotiana benthamiana", "conditions": "Agrobacterium-infiltrated tobacco leaves", "source_text": "The Trap8 and TraP9 chimeric chloroplast transit peptide sequences were initially tested via a transient in planta assay. Polynucleotide sequences which encode the Trap8 (SEQ ID NO:5) and TraP9 (SEQ ID NO:6) chimeric chloroplast transit peptide sequences were synthesized. A linker sequence (SEQ ID NO:7) was incorporated between the TraP sequence and the yfp coding sequence. The resulting constructs contained two plant transcription units (PTU). The first PTU was comprised of the Arabidopsis thaliana Ubiquitin 10 promoter (AtUbi10 promoter; Callis, et al., (1990) J. Biol. Chem., 265: 12486-12493), TraP-yellow fluorescent protein fusion gene (TraP-YFP; US Patent App. 2007/0298412), and Agrobacterium tumefaciens ORF 23 3′ untranslated region (AtuORF23 3′UTR; U.S. Pat. No. 5,428,147). […]\nAgrobacterium-infiltrated tobacco leaves were severed from the plant, and placed into a petri-dish with water to prevent dehydration. The infiltrated tobacco leaves were observed under blue light excitation with long-pass filter glasses held in place using a Dark Reader Hand Lamp™ (Clare Chemical Research Co.; Dolores, Colo.) to identify undamaged areas of the leaf that were successfully expressing the YFP reporter proteins. […]", "data": [{"molecule": "B1", "values": [{"measurement": "Localization of YFP fluorescence in tobacco leaf cells", "value": "accumulated within the chloroplasts"}]}]}
